According to patent US20230265151A1, “GIP/GLP1 CO-AGONIST COMPOUNDS” (priority 2020, published 2023):
Where a chain is given by its changes, count along the chain named. *1 amine or outer side, *2 acyl side, *3 side chain or, on linkers, in order; H or OH if unused. Where no end group is shown, it is not given here. Side-chain parts run from the residue outwards. [ ]: non-standard residue; d: D form. The star is where a group is joined. αMePhe(2-F) = C[C@](N)(Cc1ccccc1F)C(=O)O; γGlu = O=C(O)[C@H](CCC(=O)[*:2])N[*:1]; C14 diacid = O=C(O)CCCCCCCCCCCCC(=O)*; αMeY = C[C@](N)(Cc1ccc(O)cc1)C(=O)O; αMeL = CC(C)C[C@](C)(N)C(=O)O; Nle = CCCC[C@H](N)C(=O)O; Orn = NCCC[C@H](N)C(=O)O; AEEA = NCCOCCOCC(=O)O; Aib = CC(C)(N)C(=O)O

Columns and labels:
Assay in all cases: cell-based or functional assay
human GIP receptor = target: T1, human GIP receptor (human, UniProt P48546 22-466)
T1 sequence (looked up): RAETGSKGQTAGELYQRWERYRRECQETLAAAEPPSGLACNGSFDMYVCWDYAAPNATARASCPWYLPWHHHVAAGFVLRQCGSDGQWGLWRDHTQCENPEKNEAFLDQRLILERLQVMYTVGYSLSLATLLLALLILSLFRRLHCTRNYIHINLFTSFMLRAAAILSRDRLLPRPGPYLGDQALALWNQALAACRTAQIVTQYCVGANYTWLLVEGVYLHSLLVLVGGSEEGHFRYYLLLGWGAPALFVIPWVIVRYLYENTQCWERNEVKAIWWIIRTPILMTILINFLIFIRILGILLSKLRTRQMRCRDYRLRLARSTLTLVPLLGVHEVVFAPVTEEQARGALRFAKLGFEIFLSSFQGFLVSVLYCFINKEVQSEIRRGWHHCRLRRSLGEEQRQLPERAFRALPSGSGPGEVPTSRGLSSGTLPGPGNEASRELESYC

human GLP-1 receptor = human GLP-1 receptor (human, UniProt P43220 24-463)
human glucagon receptor = human glucagon receptor (human, UniProt P47871 26-477)
human glucagon receptor, sequence (P47871 26-477): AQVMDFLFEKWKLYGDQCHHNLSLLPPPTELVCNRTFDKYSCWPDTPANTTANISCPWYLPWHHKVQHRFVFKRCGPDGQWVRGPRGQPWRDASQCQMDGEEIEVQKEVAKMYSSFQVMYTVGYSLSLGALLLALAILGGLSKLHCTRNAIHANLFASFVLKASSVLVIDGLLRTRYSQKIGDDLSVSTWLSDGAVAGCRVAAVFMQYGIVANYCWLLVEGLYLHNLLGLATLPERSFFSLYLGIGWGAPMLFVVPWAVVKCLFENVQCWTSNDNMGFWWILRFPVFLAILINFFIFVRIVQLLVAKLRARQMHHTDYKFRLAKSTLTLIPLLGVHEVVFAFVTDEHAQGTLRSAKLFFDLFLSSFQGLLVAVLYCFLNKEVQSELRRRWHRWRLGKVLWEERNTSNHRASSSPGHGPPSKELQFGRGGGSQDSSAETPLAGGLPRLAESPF

B1: Example 476 (peptide)
peptide: YXEGTXTSDXXIXLDXQAQXXFIKXLIKGGPSSGAPPPS
modifications: Y-Aib-EGT-αMeF(2F)-TSD-4Pal-Aib-I-αMeL-LD-Orn-QAQ-Aib-Orn-FIK((2-[2-(2-Amino-ethoxy)-ethoxy]-acetyl)3-(γ-Glu)-CO-(CH2)12-CO2H)-αMeY-LIK((2-[2-(2-Amino-ethoxy)-ethoxy]-acetyl)3-(γ-Glu)-CO-(CH2)12-CO2H)GGPSSGAPPPS-NH2
In the case of B1, the “cAMP EC50 (1.0% HSA)” value (human GIP receptor) is reported as 0.154 nM, the “cAMP EC50 (1.0% HSA)” value (human GLP-1 receptor) is reported as 1.5 nM and the “cAMP EC50 (1.0% HSA)” value (human glucagon receptor) is reported as > 9.95 µM.

B2: Example 477 (peptide)
peptide: B1 peptide
modifications: Y-Aib-EGT-αMeF(2F)-TSD-4Pal-Aib-I-αMeL-LD-Orn-QAQ-Aib-Orn-FIK((2-[2-(2-Amino-ethoxy)-ethoxy]-acetyl)3-(γ-Glu)--(10-(4-carboxyphenoxy)decanoyl))-αMeY-LIK((2-[2-(2-Amino-ethoxy)-ethoxy]-acetyl)3-(γ-Glu)--(10-(4-carboxyphenoxy)decanoyl))GGPSSGAPPPS-NH2
With B2 the “cAMP EC50 (1.0% HSA)” value (human GIP receptor) was 0.163 nM, the “cAMP EC50 (1.0% HSA)” value (human GLP-1 receptor) was 1.56 nM and the “cAMP EC50 (1.0% HSA)” value (human glucagon receptor) was > 9.95 µM.

B3: Example 478 (peptide)
peptide: B1 peptide with X10Y, Q17I
modifications: Y-Aib-EGT-αMeF(2F)-TSDY-Aib-I-αMeL-LD-Orn-IAQ-Aib-Orn-FIK((2-[2-(2-Amino-ethoxy)-ethoxy]-acetyl)3-(γ-Glu)-CO-(CH2)12-CO2H)-αMeY-LIK((2-[2-(2-Amino-ethoxy)-ethoxy]-acetyl)3-(γ-Glu)-CO-(CH2)12-CO2H)GGPSSGAPPPS-NH2
B3 was tested, and the “cAMP EC50 (1.0% HSA)” value (human GIP receptor) was 0.517 nM, the “cAMP EC50 (1.0% HSA)” value (human GLP-1 receptor) was 6.16 nM and the “cAMP Emax (1.0% HSA)” value (human GLP-1 receptor) was 108%. The “cAMP EC50 (1.0% HSA)” value (human glucagon receptor) was > 9.95 µM.

B4: Example 479 (peptide)
peptide: B1 peptide with X10Y
modifications: Y-Aib-EGT-αMeF(2F)-TSDY-Aib-I-αMeL-LD-Orn-QAQ-Aib-Orn-FIK((2-[2-(2-Amino-ethoxy)-ethoxy]-acetyl)3-(γ-Glu)-CO-(CH2)12-CO2H)-αMeY-LIK((2-[2-(2-Amino-ethoxy)-ethoxy]-acetyl)3-(γ-Glu)-CO-(CH2)12-CO2H)GGPSSGAPPPS-NH2
B4 was tested, and the “cAMP EC50 (1.0% HSA)” value (human GIP receptor) was 0.196 nM, the “cAMP Emax (1.0% HSA)” value (human GIP receptor) was 89.5% and the “cAMP EC50 (1.0% HSA)” value (human GLP-1 receptor) was 2.55 nM. The “cAMP EC50 (1.0% HSA)” value (human glucagon receptor) was > 9.95 µM.

B5: Example 480 (peptide)
peptide: B1 peptide with X10Y
modifications: Y-Aib-EGT-αMeF(2F)-TSDY-Aib-I-αMeL-LD-Orn-QAQ-Aib-Orn-FIK((2-[2-(2-Amino-ethoxy)-ethoxy]-acetyl)2-(γ-Glu)2-CO-(CH2)12-CO2H)-αMeY-LIK((2-[2-(2-Amino-ethoxy)-ethoxy]-acetyl)2-(γ-Glu)2-CO-(CH2)12-CO2H)GGPSSGAPPPS-NH2
For B5, the “cAMP EC50 (1.0% HSA)” value (human GIP receptor) was 0.29 nM, the “cAMP EC50 (1.0% HSA)” value (human GLP-1 receptor) was 2.65 nM and the “cAMP Emax (1.0% HSA)” value (human GLP-1 receptor) was 104%. For the same binder, the “cAMP EC50 (1.0% HSA)” value (human glucagon receptor) was > 9.95 µM.

B6: Example 481 (peptide)
peptide: B1 peptide with X10Y, Q17I
modifications: Y-Aib-EGT-αMeF(2F)-TSDY-Aib-I-αMeL-LD-Orn-IAQ-Aib-Orn-FIK((2-[2-(2-Amino-ethoxy)-ethoxy]-acetyl)3-(γ-Glu)--(10-(4-carboxyphenoxy)decanoyl))-αMeY-LIK((2-[2-(2-Amino-ethoxy)-ethoxy]-acetyl)3-(γ-Glu)--(10-(4-carboxyphenoxy)decanoyl))GGPSSGAPPPS-NH2
For B6, the “cAMP EC50 (1.0% HSA)” value (human GIP receptor) was 0.467 nM, the “cAMP EC50 (1.0% HSA)” value (human GLP-1 receptor) was 6.16 nM and the “cAMP Emax (1.0% HSA)” value (human GLP-1 receptor) was 112%. For the same binder, the “cAMP EC50 (1.0% HSA)” value (human glucagon receptor) was > 9.95 µM.

B7: Example 482 (peptide)
peptide: B1 peptide
modifications: Y-Aib-EGT-αMeF(2F)-TSD-4Pal-Aib-I-αMeL-LD-Orn-QAQ-Aib-Orn-FIK((γ-Glu)-(2-[2-(2-Amino-ethoxy)-ethoxy]-acetyl)2-(γ-Glu)-CO-(CH2)12-CO2H)-αMeY-LIK((γ-Glu)-(2-[2-(2-Amino-ethoxy)-ethoxy]-acetyl)2-(γ-Glu)-CO-(CH2)12-CO2H)GGPSSGAPPPS-NH2
For B7, the “cAMP EC50 (1.0% HSA)” value (human GIP receptor) was 0.89 nM, the “cAMP EC50 (1.0% HSA)” value (human GLP-1 receptor) was 4.85 nM and the “cAMP EC50 (1.0% HSA)” value (human glucagon receptor) was > 9.95 µM.

B8: Example 483 (peptide)
peptide: B1 peptide
modifications: Y-Aib-EGT-αMeF(2F)-TSD-4Pal-Aib-I-αMeL-LD-Orn-QAQ-Aib-Orn-FIK((γ-Glu)-(2-[2-(2-Amino-ethoxy)-ethoxy]-acetyl)2-(γ-Glu)-(10-(4-carboxyphenoxy)decanoyl))-αMeY-LIK((γ-Glu)-(2-[2-(2-Amino-ethoxy)-ethoxy]-acetyl)2-(γ-Glu)-(10-(4-carboxyphenoxy)decanoyl))GGPSSGAPPPS-NH2
In the case of B8, the “cAMP EC50 (1.0% HSA)” value (human GIP receptor) is reported as 0.297 nM, the “cAMP EC50 (1.0% HSA)” value (human GLP-1 receptor) is reported as 3.33 nM and the “cAMP EC50 (1.0% HSA)” value (human glucagon receptor) is reported as > 9.95 µM.

B9: Example 484 (peptide)
peptide: B1 peptide
modifications: Y-Aib-EGT-αMeF(2F)-TSD-4Pal-Aib-I-αMeL-LD-Orn-QAQ-Aib-Orn-FIK((2-[2-(2-Amino-ethoxy)-ethoxy]-acetyl)-(γ-Glu)-(2-[2-(2-Amino-ethoxy)-ethoxy]-acetyl)-(γ-Glu)-CO-(CH2)12-CO2H)-αMeY-LIK((2-[2-(2-Amino-ethoxy)-ethoxy]-acetyl)-(γ-Glu)-(2-[2-(2-Amino-ethoxy)-ethoxy]-acetyl)-(γ-Glu)-CO-(CH2)12-CO2H)GGPSSGAPPPS-NH2
With B9 the “cAMP EC50 (1.0% HSA)” value (human GIP receptor) was 0.453 nM, the “cAMP EC50 (1.0% HSA)” value (human GLP-1 receptor) was 3.66 nM and the “cAMP EC50 (1.0% HSA)” value (human glucagon receptor) was > 9.95 µM.

B10: Example 485 (peptide)
peptide: B1 peptide
modifications: Y-Aib-EGT-αMeF(2F)-TSD-4Pal-Aib-I-αMeL-LD-Orn-QAQ-Aib-Orn-FIK((2-[2-(2-Amino-ethoxy)-ethoxy]-acetyl)-(γ-Glu)-(2-[2-(2-Amino-ethoxy)-ethoxy]-acetyl)-(γ-Glu)-(10-(4-carboxyphenoxy)decanoyl))-αMeY-LIK((2-[2-(2-Amino-ethoxy)-ethoxy]-acetyl)-(γ-Glu)-(2-[2-(2-Amino-ethoxy)-ethoxy]-acetyl)-(γ-Glu)-(10-(4-carboxyphenoxy)decanoyl))GGPSSGAPPPS-NH2
B10 was tested, and the “cAMP EC50 (1.0% HSA)” value (human GIP receptor) was 0.536 nM, the “cAMP EC50 (1.0% HSA)” value (human GLP-1 receptor) was 3.9 nM and the “cAMP EC50 (1.0% HSA)” value (human glucagon receptor) was > 9.95 µM.

B11: Example 486 (peptide)
peptide: B1 peptide
modifications: Y-Aib-EGT-αMeF(2F)-TSD-4Pal-Aib-I-αMeL-LD-Orn-QAQ-Aib-Orn-FIK((2-[2-(2-Amino-ethoxy)-ethoxy]-acetyl)-(γ-Glu)3-CO-(CH2)12-CO2H)-αMeY-LIK((2-[2-(2-Amino-ethoxy)-ethoxy]-acetyl)-(γ-Glu)3-CO-(CH2)12-CO2H)GGPSSGAPPPS-NH2
With B11 the “cAMP EC50 (1.0% HSA)” value (human GIP receptor) was 0.239 nM, the “cAMP EC50 (1.0% HSA)” value (human GLP-1 receptor) was 2 nM and the “cAMP EC50 (1.0% HSA)” value (human glucagon receptor) was > 9.95 µM.

B12: Example 487 (peptide)
peptide: B1 peptide
modifications: Y-Aib-EGT-αMeF(2F)-TSD-4Pal-Aib-I-αMeL-LD-Orn-QAQ-Aib-Orn-FIK((2-[2-(2-Amino-ethoxy)-ethoxy]-acetyl)-(γ-Glu)3-(10-(4-carboxyphenoxy)decanoyl))-αMeY-LIK((2-[2-(2-Amino-ethoxy)-ethoxy]-acetyl)-(γ-Glu)3--(10-(4-carboxyphenoxy)decanoyl))GGPSSGAPPPS-NH2
With B12 the “cAMP EC50 (1.0% HSA)” value (human GIP receptor) was 0.429 nM, the “cAMP EC50 (1.0% HSA)” value (human GLP-1 receptor) was 3.16 nM and the “cAMP EC50 (1.0% HSA)” value (human glucagon receptor) was > 9.95 µM.

For Y[Aib]EGT[αMePhe(2-F)]TSD[Nle]SI[αMeL]LD[Orn]QAQ[Aib][Orn]FIK([AEEA-AEEA-γGlu-C14 diacid])[αMeY]LIK([AEEA-AEEA-γGlu-C14 diacid])GGPSSGAPPPS-NH2 [Example 490], the “cAMP EC50 (1.0% HSA)” value (human GIP receptor) was 0.976 nM, the “cAMP Emax (1.0% HSA)” value (human GIP receptor) was 97.1% and the “cAMP EC50 (1.0% HSA)” value (human GLP-1 receptor) was 7.68 nM. For the same binder, the “cAMP EC50 (1.0% HSA)” value (human glucagon receptor) was > 9.95 µM.

B13: Example 491 (peptide)
peptide: B1 peptide with X11S
modifications: Y-Aib-EGT-αMeF(2F)-TSD-hY-SI-αMeL-LD-Orn-QAQ-Aib-Orn-FIK((2-[2-(2-Amino-ethoxy)-ethoxy]-acetyl)2-(γ-Glu)-CO-(CH2)12-CO2H)-αMeY-LIK((2-[2-(2-Amino-ethoxy)-ethoxy]-acetyl)2-(γ-Glu)-CO-(CH2)12-CO2H)GGPSSGAPPPS-NH2
B13 was tested, and the “cAMP EC50 (1.0% HSA)” value (human GIP receptor) was 1.08 nM, the “cAMP Emax (1.0% HSA)” value (human GIP receptor) was 87.5% and the “cAMP EC50 (1.0% HSA)” value (human GLP-1 receptor) was 5.51 nM. The “cAMP EC50 (1.0% HSA)” value (human glucagon receptor) was > 9.95 µM.

B14: Example 492 (peptide)
peptide: B1 peptide with X10Y
modifications: Y-Aib-EGT-αMeF(2F)-TSDY-Aib-I-αMeL-LD-Orn-QAQ-Aib-Orn-FIK((2-[2-(2-Amino-ethoxy)-ethoxy]-acetyl)2-(γ-Glu)--C10_4CP)-αMeY-LIK((2-[2-(2-Amino-ethoxy)-ethoxy]-acetyl)2-(γ-Glu)--C10_4CP)GGPSSGAPPPS-NH2
With B14 the “cAMP EC50 (1.0% HSA)” value (human GIP receptor) was 0.371 nM, the “cAMP Emax (1.0% HSA)” value (human GIP receptor) was 88.7% and the “cAMP EC50 (1.0% HSA)” value (human GLP-1 receptor) was 4.31 nM. The “cAMP Emax (1.0% HSA)” value (human GLP-1 receptor) was 104% and the “cAMP EC50 (1.0% HSA)” value (human glucagon receptor) was > 9.95 µM.

B15: Example 493 (peptide)
peptide: B1 peptide
modifications: Y-Aib-EGT-αMeF(2F)-TSD-4Pal-Aib-I-αMeL-LD-Orn-QAQ-Aib-4Pal-FIK((2-[2-(2-Amino-ethoxy)-ethoxy]-acetyl)2-(γ-Glu)-(10-(4-carboxyphenoxy)decanoyl))-αMeY-LIK((2-[2-(2-Amino-ethoxy)-ethoxy]-acetyl)2-(γ-Glu)-(10-(4-carboxyphenoxy)decanoyl))GGPSSGAPPPS-NH2
With B15 the “cAMP EC50 (1.0% HSA)” value (human GIP receptor) was 0.591 nM, the “cAMP EC50 (1.0% HSA)” value (human GLP-1 receptor) was 7.24 nM and the “cAMP EC50 (1.0% HSA)” value (human glucagon receptor) was > 9.95 µM.
